Measurements published in publication PMC8860381 (Molecular Cell, 2022).

Key:
[1] = test system: Nc1ncnc2c1ncn2[C@@H]1O[C@H](COP(=O)(O)OP(=O)(O)OP(=O)(O)O)[C@@H](O)[C@H]1O; test: pyruvate kinase/lactate dehydrogenase-coupled ATPase assay; type: biochemical, Homo sapiens; conditions: 10 μg/mL poly(U) RNA, 50 nM complex, 5 mM MgAc2, 50 mM KAc, pH 7.5, 37°C
[2] = biological target: T1, hSKI complex (hSKI-WT; hSKI2-hSKI3-hSKI8) (Homo sapiens, UniProt Q15477, E424Q); test: as above; type: biochemical; conditions: 10 μg/mL poly(U) RNA, 50 nM complex, 5 mM MgAc2, 50 mM KAc, pH 7.5, 37°C
T1 construct: gene SKIC2; full-length subunits co-expressed in Sf21 insect cells; 3C-cleavable 10xHis tag on TTC37 N-terminus, tag removed; with Superkiller complex protein 3 (tetratricopeptide repeat protein 37); Superkiller complex protein 8 (WD repeat-containing protein 61)

[3] = biological target: T2, hSKI complex (hSKI-WT; hSKI2-hSKI3-hSKI8) (Homo sapiens, UniProt Q15477, V341G); test: as above; type: biochemical; conditions: 10 μg/mL poly(U) RNA, 50 nM complex, 5 mM MgAc2, 50 mM KAc, pH 7.5, 37°C
T2 construct: gene SKIC2; full-length subunits co-expressed in Sf21 insect cells; 3C-cleavable 10xHis tag on TTC37 N-terminus, tag removed; with Superkiller complex protein 3 (tetratricopeptide repeat protein 37); Superkiller complex protein 8 (WD repeat-containing protein 61)

hSKI-Δarch = biological target: T3, hSKI-Δarch (Homo sapiens, UniProt Q15477); test: as above; type: biochemical; conditions: 10 μg/mL poly(U) RNA, 50 nM complex, 5 mM MgAc2, 50 mM KAc, pH 7.5, 37°C
T3 construct: gene SKIC2; Sf21 insect cells; 10xHis tag on TTC37 removed; with Superkiller complex protein 3 (tetratricopeptide repeat protein 37); Superkiller complex protein 8 (WD repeat-containing protein 61)
Text: pyruvate kinase/lactate dehydrogenase-coupled ATPase assay on hSKI-Δarch | removal of the hSKI2 arch domain led only to a minor increase in the ATPase activity

[4] = biological target: hEXO10c (hEXO9 core + hDIS3L D486N) (Homo sapiens, UniProt Q8TF46;Q9Y3B2;Q13868;Q9NQT5;Q9NPD3;Q9NQT4;Q5RKV6;Q15024;Q96B26;Q06265 …, D486N); test: RNase protection (benzonase); hEXO10c alone, characteristic footprint, lane 1; Binding buffers not in material (Methods sections for RNase protection and cryo-EM sample preparation are empty); hSKI storage buffer 20 mM Hepes pH 7.5, 100 mM NaCl, 2 mM DTT; conditions: protein: recombinant; tags: TwinStrep-3C on DIS3L N-terminus; copies: 1;1;1;1;1;1;1;1;1;1; label: 32P body-labelled (alpha-32P UTP); single strand

Molecule “hSKI complex (hSKI-WT; hSKI2-hSKI3-hSKI8) (Homo sapiens)” has a Km [1] of 149.4 µM and a kcat [1] of 0.685 s⁻¹.

`Nc1ncnc2c1ncn2[C@@H]1O[C@H](COP(=O)(O)OP(=O)(O)OP(=O)(O)O)[C@@H](O)[C@H]1O` [ATP] was tested, and the ATPase activity abolished [2] was “the ATPase activity of hSKI was abolished in the case of a mutant complex”, the “inactive in ATPase assay” value [3] was “V341G substitution (hSKI-THES) and indeed found that it is inactive in ATPase assays” and the Km (hSKI-Δarch) was 121 µM.

B1: GGGC(*UC)48 RNA (ssRNA)
RNA: GGGCUCUCUCUCUCUCUCUCUCUCUCUCUCUCUCUCUCUCUCUCUCUCUCUCUCUCUCUCUCUCUCUCUCUCUCUCUCUCUCUCUCUCUCUCUCUCUCUC
B1: binds [4].
